Paper PMC6451128, “Structural and functional analysis of the nucleotide and DNA binding activities of the human PIF1 helicase”

Experiments:
hPIF1HD R290A = target: T1, hPIF1HD R290A (human, UniProt Q9H611 206-620, R290A); assay: EMSA; no nucleotide; apparent, near saturation not reached; 20 mM HEPES-NaOH pH 7.5 (Results say pH 7.2), 135 mM NaCl, 5% glycerol, 1 mM DTT, 1 mg/ml BSA, 20 min at 20 C; 0.4 nM T(35); G4 assay: 0.1 nM G4 DNA, 2% PEG 8000 instead of glycerol, 5 uM T(35) competitor; details: protein: recombinant; tags: His tag removed, GSRM left; label: 5' 32P (PNK)
T1 sequence: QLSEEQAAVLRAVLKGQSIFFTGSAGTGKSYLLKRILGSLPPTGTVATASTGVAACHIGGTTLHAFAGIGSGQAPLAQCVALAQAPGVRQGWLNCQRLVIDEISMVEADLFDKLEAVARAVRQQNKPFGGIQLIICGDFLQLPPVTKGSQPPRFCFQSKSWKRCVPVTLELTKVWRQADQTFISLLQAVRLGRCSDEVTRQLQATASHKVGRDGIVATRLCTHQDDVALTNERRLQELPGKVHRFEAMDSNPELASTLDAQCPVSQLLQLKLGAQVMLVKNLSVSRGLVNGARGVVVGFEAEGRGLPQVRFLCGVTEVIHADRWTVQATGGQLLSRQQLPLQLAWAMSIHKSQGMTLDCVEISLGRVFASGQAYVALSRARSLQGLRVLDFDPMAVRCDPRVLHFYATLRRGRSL

hPIF1HD wild-type = target: T2, hPIF1HD wild-type (human, UniProt Q9H611 206-620); assay: EMSA; no nucleotide; apparent; 20 mM HEPES-NaOH pH 7.5 (Results say pH 7.2), 135 mM NaCl, 5% glycerol, 1 mM DTT, 1 mg/ml BSA, 20 min at 20 C; 0.4 nM T(35); G4 assay: 0.1 nM G4 DNA, 2% PEG 8000 instead of glycerol, 5 uM T(35) competitor; details: protein: recombinant; tags: His tag removed by thrombin, GSRM left at N-term; label: 5' 32P (PNK)
T2 sequence: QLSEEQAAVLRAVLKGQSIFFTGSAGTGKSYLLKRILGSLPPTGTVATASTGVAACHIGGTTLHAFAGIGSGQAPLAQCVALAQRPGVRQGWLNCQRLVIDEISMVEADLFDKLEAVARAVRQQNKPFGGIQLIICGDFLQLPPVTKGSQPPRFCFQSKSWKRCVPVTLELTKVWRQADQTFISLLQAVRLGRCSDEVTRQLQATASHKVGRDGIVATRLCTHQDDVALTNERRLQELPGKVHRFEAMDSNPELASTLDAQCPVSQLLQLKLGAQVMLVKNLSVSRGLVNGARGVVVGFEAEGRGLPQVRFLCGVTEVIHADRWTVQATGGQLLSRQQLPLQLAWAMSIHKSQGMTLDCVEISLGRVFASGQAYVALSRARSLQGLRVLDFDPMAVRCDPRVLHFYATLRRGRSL

hPIF1HD E307Q = target: T3, hPIF1HD E307Q (human, UniProt Q9H611 206-620, E307Q); assay: as above; details: protein: recombinant; tags: His tag removed, GSRM left; label: 5' 32P (PNK)
T3 sequence: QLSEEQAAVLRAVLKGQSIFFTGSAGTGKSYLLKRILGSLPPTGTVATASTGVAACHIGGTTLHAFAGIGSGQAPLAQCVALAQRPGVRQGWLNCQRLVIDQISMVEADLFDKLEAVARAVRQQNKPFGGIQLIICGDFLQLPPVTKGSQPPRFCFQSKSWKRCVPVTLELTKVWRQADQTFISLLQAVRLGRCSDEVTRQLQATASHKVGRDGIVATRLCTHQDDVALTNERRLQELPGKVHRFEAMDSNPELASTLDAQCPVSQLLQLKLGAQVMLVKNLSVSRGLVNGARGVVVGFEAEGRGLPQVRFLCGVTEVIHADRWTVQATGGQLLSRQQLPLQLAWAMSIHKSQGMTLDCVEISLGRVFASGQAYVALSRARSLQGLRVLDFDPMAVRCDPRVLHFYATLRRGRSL

hPIF1HD K414A = target: T4, hPIF1HD K414A (human, UniProt Q9H611 206-620, K414A); assay: as above; details: protein: recombinant; tags: His tag removed, GSRM left; label: 5' 32P (PNK)
T4 sequence: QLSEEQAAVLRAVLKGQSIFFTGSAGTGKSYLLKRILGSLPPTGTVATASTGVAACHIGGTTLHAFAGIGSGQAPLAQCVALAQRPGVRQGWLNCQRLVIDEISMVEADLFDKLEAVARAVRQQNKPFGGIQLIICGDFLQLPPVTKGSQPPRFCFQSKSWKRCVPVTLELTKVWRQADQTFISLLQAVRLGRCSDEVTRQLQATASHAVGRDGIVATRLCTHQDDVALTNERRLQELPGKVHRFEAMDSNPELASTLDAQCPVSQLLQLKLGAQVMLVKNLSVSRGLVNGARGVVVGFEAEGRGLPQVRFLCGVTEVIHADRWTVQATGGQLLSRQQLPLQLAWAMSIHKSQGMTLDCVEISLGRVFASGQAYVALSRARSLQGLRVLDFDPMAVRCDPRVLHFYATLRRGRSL

B1: poly-T(35) (ssDNA)
DNA: TTTTTTTTTTTTTTTTTTTTTTTTTTTTTTTTTTT
- Kd (hPIF1HD R290A): ~40.4 nM
- Kd (hPIF1HD wild-type): 2.3 ± 0.3 nM
- Kd (hPIF1HD E307Q): 3.6 ± 0.5 nM
- Kd (hPIF1HD K414A): 1.6 ± 0.4 nM
